Data from the supplement of paper PMC10567573.

B1: ANKRD17 (parent)
chain: EMVRFLLEAGADQEHKTDEMHTAL

Variants of: B1
Assay: protein stability index of a GFP-peptide fusion (GPS, HEK-293T) (PSI 1-6); higher = more stable
Details: c terminus: a fixed tail appended
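Also: lentivirally expressed fusions sorted by FACS into six bins by GFP to DsRed ratio, PSI derived from sequencing read proportions per bin multiplied by bin number.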

Protein stability index of substitutions, site by site:
G10: W 2.2, Y 1.72
A11: C 2.57, D 3.21, E 2.68, F 1.83, G 3.45, H 3.22, I 2.29, K 2.64, L 2.04, M 1.87, N 3.29, P 3.73, Q 2.58, R 3.02, S 3.1, T 3.53, V 2.94, W 2.22, Y 2.01
D12: A 2.38, C 1.44, E 2.76, F 1.66, G 1.96, H 1.94, I 1.62, K 2.69, L 1.09, M 2.07, N 2.17, P 2.25, Q 2.66, R 2.05, S 2.29, T 2.21, V 2.05, W 1.43, Y 1.89
Q13: A 2.65, C 3.28, D 3.77, E 2.79, F 2.11, G 2.78, H 2.46, I 2.36, K 2.92, L 2.03, M 2.25, N 2.86, P 2.67, R 2.22, S 2.94, T 3.83, V 2.69, W 2.27, Y 1.87
E14: A 1.69, C 1.5, D 2.61, F 1.9, G 2.63, H 2.01, I 1.28, K 2.76, L 1.79, M 2.72, N 1.95, P 1.9, Q 2.46, R 1.95, S 2.15, T 2.04, V 1.82, W 1.67, Y 1.44
H15: A 2.76, C 3.16, D 3.33, E 3.04, F 1.94, G 2.73, I 2.56, K 2.92, L 2.71, M 2.42, N 3.21, P 2.33, Q 3, R 2.44, S 2.79, T 3.02, V 2.69, W 1.72, Y 1.97
K16: A 3.16, C 2.56, D 3.54, E 2.68, F 3, G 2.56, H 2.87, I 2.72, L 3.11, M 3.06, N 3.29, P 2.45, Q 2.53, R 2.51, S 2.91, T 3.44, V 3.18, W 1.88, Y 2.22
T17: A 2.45, C 2.5, D 3.12, E 2.99, F 2.15, G 2.94, H 2.55, I 2.16, K 3.12, L 2.22, M 2.71, N 2.21, P 3.17, Q 2.54, R 2.68, S 2.76, V 2.37, W 2.19, Y 2.33
D18: A 2.31, C 2.01, E 3.16, F 1.34, G 2.26, H 2.01, I 2.64, K 2.47, L 1.7, M 2.1, N 2.51, P 2.35, Q 2.67, R 2.1, S 2.73, T 2.42, V 1.6, W 2.44, Y 1.44
E19: A 2.33, C 1.54, D 2.28, F 1.97, G 1.71, H 2.22, I 1.63, K 1.91, L 2.29, M 2.01, N 3.27, P 1.87, Q 1.92
